Results on one protein are retold here after patent publication US20060171977A1, “Methods for the identification of fungicidally active compounds based on thymidylate kinase” (priority 2004, published 2006).

Substrate in series [1]: Nc1ncnc2c1ncn2[C@@H]1O[C@H](COP(=O)(O)OP(=O)(O)OP(=O)(O)O)[C@@H](O)[C@H]1O
Nature of the series: KM determination of thymidylate kinase substrates (coupled PK/LDH assay, Lineweaver-Burk plot). Type of series: biochemical, Saccharomyces cerevisiae. Conditions: other: substrate of thymidylate kinase from yeast; FIG. 5. The protocol: (§1) FIG. 4: Graphical illustration of the kinetics of conversion of thymidylate and ATP by various concentration of thymidylate kinase in the assay. In an assay volume of 50 μl, 500 μM thymidylate, 500 μM ATP, 300 μM NADH, 400 μM PEP (phosphoenol pyruvate), 0.1 U pyruvate kinase and 0.1 U lactate dehydrogenase were employed. The conversion occurred on the basis of a decrease in absorption at 340 nm due to the reaction of the released ADP with PEP and NADH to form lactate and NAD.
(§2) FIG. 5: Lineweaver-Burk plot for determination of the KM value of dTMP (A) and ATP (B). The measured values are illustrated according to Lineweaver and Burk, i.e. 1/Vo=1/Vmax+1/S×(KM/Vmax), where Vo is the original reaction speed, Vmax is the maximum attainable reaction speed and S is the substrate concentration. Vmax and KM can then be calculated as the intercepts on the vertical axis and horizontal axis, 1/V and 1/KM. The KM value for dTMP is 0.17 mM […], the KM value for ATP is 0.16 mM […].
(§3) A preferred method (see Example 3) makes use of the fact that an adenosine diphosphate molecule (ADP) is released during the thymidylate kinase reaction. The activity, or the increase or decrease in activity, of the polypeptide according to the invention can thus be determined via detection of the resulting ADP. […]

Substrate in series [2]: Cc1cn([C@H]2C[C@H](O)[C@@H](COP(=O)(O)O)O2)c(=O)[nH]c1=O
Described as above. Type of series: biochemical, Saccharomyces cerevisiae. The following applies: other: substrate of thymidylate kinase from yeast; FIG. 5. Here is the method: as §1, §2, §3

B1: thymidylate kinase from yeast (Saccharomyces cerevisiae S288C) (protein)
chain: MMGRGKLILIEGLDRTGKTTQCNILYKKLQPNCKLLKFPERSTRIGGLINEYLTDDSFQLSDQAIHLLFSANRWEIVDKIKKDLLEGKNIVMDRYVYSGVAYSAAKGTNGMDLDWCLQPDVGLLKPDLTLFLSTQDVDNNAEKSGFGDERYETVKFQEKVKQTFMKLLDKEIRKGDESITIVDVTNKGIQEVEALIWQIVEPVLSTHIDHDKFSFF
notes: His6 (with pDest17 vector linker) (N); made in house; host or cells: E. coli BL21(DE3)pLysS
On to B1, for which the values for the Km in series [1] and in series [2] were 160 µM and 170 µM, respectively.
